Data as given in the supplement of paper PMC9112550, “Optimization of the antimicrobial peptide Bac7 by deep mutational scanning” (BMC Biology, 2022).

What follows are sequences tested on Escherichia coli TOP10 (assay: shrunken log2 fold change of peptide-encoding DNA abundance (4.5 h post-induction vs induction); higher = less antimicrobial activity (less host growth inhibition)). Details: time post-induction: 4.5 h; library: site-saturation at positions 5, 18, 19, 20.
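Also: peptides expressed intracellularly from a pBAD plasmid library in pooled LB shake-flask culture, induced with 0.3% L-arabinose, DNA abundance read by NGS, three biological replicates, DESeq2 with apeglm shrinkage.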

| Sequence | shrunken log2 fold change |
| --- | --- |
| RRIRSRPPRLPRPRPRPYHMPRP | -1.26 |
| RRIRCRPPRLPRPRPRPVWCPRP | -0.269 |
| RRIRRRPPRLPRPRPRPTQCPRP | 0.252 |
| RRIRSRPPRLPRPRPRPACGPRP | 0.436 |
| RRIRIRPPRLPRPRPRPMNGPRP | 0.00766 |
| RRIRIRPPRLPRPRPRPFRKPRP | -0.169 |
| RRIRCRPPRLPRPRPRPPISPRP | -0.38 |
| RRIRERPPRLPRPRPRPPDMPRP | -0.332 |
| RRIRHRPPRLPRPRPRPEPDPRP | 0.257 |
| RRIRQRPPRLPRPRPRPPVGPRP | 0.119 |
| RRIRHRPPRLPRPRPRPCAVPRP | -0.0171 |
| RRIRGRPPRLPRPRPRPENRPRP | 0.19 |
| RRIRFRPPRLPRPRPRPYPRPRP | -0.6 |
| RRIRDRPPRLPRPRPRPRYKPRP | -0.202 |
| RRIRWRPPRLPRPRPRPHFFPRP | -0.0221 |
| RRIRERPPRLPRPRPRPMDFPRP | -0.0298 |
| RRIRYRPPRLPRPRPRPWQQPRP | -0.273 |
| RRIRIRPPRLPRPRPRPPCNPRP | -0.449 |
| RRIRNRPPRLPRPRPRPLCTPRP | -0.194 |
| RRIRQRPPRLPRPRPRPSINPRP | -0.806 |
| RRIRRRPPRLPRPRPRPLECPRP | 0.0527 |
| RRIRIRPPRLPRPRPRPQMSPRP | -0.0696 |
| RRIRPRPPRLPRPRPRPQRPPRP | 0.272 |
| RRIRGRPPRLPRPRPRPSGPPRP | -0.0342 |
| RRIRCRPPRLPRPRPRPINNPRP | -0.633 |

| Sequence | shrunken log2 fold change |
| --- | --- |
| RRIRERPPRLPRPRPRPIYHPRP | -0.626 |
| RRIRNRPPRLPRPRPRPILFPRP | -0.396 |
| RRIRRRPPRLPRPRPRPMWGPRP | 0.0327 |
| RRIRYRPPRLPRPRPRPYDTPRP | -0.149 |
| RRIRLRPPRLPRPRPRPFHYPRP | -0.211 |
| RRIRCRPPRLPRPRPRPRQGPRP | 0.436 |
| RRIRQRPPRLPRPRPRPFVFPRP | -0.273 |
| RRIRMRPPRLPRPRPRPMDGPRP | 0.418 |
| RRIRTRPPRLPRPRPRPEDLPRP | 0.0657 |
| RRIRGRPPRLPRPRPRPGPNPRP | 0.941 |
| RRIRQRPPRLPRPRPRPKCDPRP | 0.151 |
| RRIRGRPPRLPRPRPRPEANPRP | 0.632 |
| RRIRYRPPRLPRPRPRPWWHPRP | -0.757 |
| RRIRRRPPRLPRPRPRPDWTPRP | -0.133 |
| RRIRHRPPRLPRPRPRPRVTPRP | 0.0786 |
| RRIRMRPPRLPRPRPRPEFMPRP | 0.656 |
| RRIRERPPRLPRPRPRPHQWPRP | -0.199 |
| RRIRYRPPRLPRPRPRPAMYPRP | -1.14 |
| RRIRARPPRLPRPRPRPMANPRP | 0.285 |
| RRIRCRPPRLPRPRPRPEYLPRP | -0.258 |
| RRIRARPPRLPRPRPRPPHAPRP | 0.964 |
| RRIRHRPPRLPRPRPRPHYSPRP | -0.142 |
| RRIRQRPPRLPRPRPRPLDEPRP | 0.0698 |
| RRIRTRPPRLPRPRPRPYSPPRP | -0.226 |
| RRIRGRPPRLPRPRPRPQFNPRP | -0.163 |
